Assay results: patent US20190177391A1, “ANGIOPOIETIN-LIKE PROTEIN 8 (ANGPTL8)” (BAYLOR RESEARCH INSTITUTE, priority 2016, published 2019)

Legend:
Notch1 = Notch1 expression in HL-1 atria muscle cells treated with ADM; type: cell-based, mouse; settings: HL-1 cells; ADM 0.25, 0.5, 1.0 μM, 48 hrs
ISL-1 = ISL-1 positive cardiac progenitor cells in epicardium and sub-epicardium (staining, qRT-PCR); type: in vivo, rat; settings: protein injection, dose dependent manner, after 14 days treatment
Experimental: (§1) There were 120 rats divided into three control groups of 30 rats each and a treatment group of 30 rats: (1) normal control rats; (2) ADM injection only; (3) ADM plus UTMD with a DsRed reporter gene (pXL-BASII-CI-DsRed/pCI-hyPB); (4) ADM plus UTMD with ANGPTL8 (pXL-BASII-CI-ANGPTL8/pCI-hyPB). All rats were euthanized at 3 days, 7 days, 14 days, 21 days and 28 days after UTMD. The thymidine analog, 5-bromo-2-deoxyuridine (BrdU) (100 mg/kg) was injected intraperitoneally 6 hours prior to euthanizing.
(§2) 15 rats divided into (1) normal control rats; (2) ADM plus Saline inject rats; (3) ADM plus ANGPTL8 protein at dose of 5 μg/kg/day intramuscular inject for 14 days; (4) ADM plus ANGPTL8 protein at dose of 20 μg/kg/day intramuscular inject for 14 days; (5) ADM plus ANGPTL8 protein at dose of 40 μg/kg/day intramuscular inject for 14 days; All rats were euthanized at 14 days after starting ANGTPL8 protein inject. The thymidine analog, 5-bromo-2-deoxyuridine (BrdU) (100 mg/kg) was injected intraperitoneally 6 hours prior to euthanasia. […]
Total RNA was isolated from 100 mg of pancreas, liver and left quadratic skeletal muscle using the RNeasy mini kit (Qiagen). Real-time quantitative RT-PCR (qRT-PCR) analysis was performed on an ABI 7700 Sequence Detector (Applied Biosystems, Grand Island, N.Y., USA) using SYBR Green (RT2 SYBR Green qPCR Kit; Qiagen, Boston, Mass., USA). […]

[1] = ELISA for fasting plasma human ANGPTL8; type: in vivo, rat; settings: protein therapy; intramuscular daily for 14 days, 5, 20, 40 μg/kg/day; day 3, 7, 10 and 14
Experimental: as §1
15 rats divided into (1) normal control rats; (2) ADM plus Saline inject rats; (3) ADM plus ANGPTL8 protein at dose of 5 μg/kg/day intramuscular inject for 14 days; (4) ADM plus ANGPTL8 protein at dose of 20 μg/kg/day intramuscular inject for 14 days; (5) ADM plus ANGPTL8 protein at dose of 40 μg/kg/day intramuscular inject for 14 days; All rats were euthanized at 14 days after starting ANGTPL8 protein inject. The thymidine analog, 5-bromo-2-deoxyuridine (BrdU) (100 mg/kg) was injected intraperitoneally 6 hours prior to euthanasia. Human recombinant protein ANGTPL8 protein was purchased from Phoenix Pharmaceuticals (Cat #056-61, Burlingame, Calif., USA).
Fasting venous blood was collected in EDTA tubes from the tail vein, and plasma lipids were measured using standard enzymatic assays. Human ANGTPL8 was measured using ELISA (Phoenix Pharmaceuticals).

[2] = test system: rat hearts with established adriamycin cardiomyopathy; test: Echocardiography of heart structure and function in established adriamycin cardiomyopathy; type: in vivo; settings: protein therapy; 5, 20, 40 μg/kg/day intramuscular for 14 days; ADM cardiomyopathy rats
Experimental: The protocol was planned to test the hypothesis that delivery of ANGPTL8 by UTMD could reverse established adriamycin (ADM) cardiomyopathy defined as a fractional shortening <30% by echocardiography after injection of ADM (Iliskovic, et al., 1997) at total dose of 15 mg/kg/ip, 2.5 mg/kg/ip 6 times over 2 weeks.
as §1, §2

Row | Notch1 expression (Notch1) | Molecule | ISL-1 positive cells in epicardial layer (ISL-1) | human ANGPTL8 in fasting plasma [1] | LV fractional shortening [2] | LV mass [2]
1 | significantly inhibited | COc1cccc2c1C(=O)c1c(O)c3c(c(O)c1C2=O)C[C@@](O)(C(=O)CO)C[C@@H]3O[C@H]1C[C@H](N)[C@H](O)[C@H](C)O1 [ADM, adriamycin] |  |  |  | 
2 |  | ANGPTL8 protein: Human recombinant ANGPTL8 protein purchased from Phoenix Pharmaceuticals (Cat #056-61), injected intramuscularly (protein, UniProt Q6UXH0 22-198, looked up) Angiopoietin-like protein 8: APMGGPELAQHEELTLLFHGTLQLGQALNGVYRTTEGRLTKARNSLGLYGRTIELLGQEVSRGRDAAQELRASLLETQMEEDILQLQAEATAEVLGEVAQAQKVLRDSVQRLEVQLRSAWLGPAYREFEVLKAHADKQSHILWALTGHVQRQRREMVAQQHRLRQIQERLHTAALPA | activated | detected | some degree of restoration | some degree of restoration
